Reference: patent US20110020273A1

Biological target: fusion protein containing the A3B3 domain of CEA (UniProt P06731)
Test: competitive ELISA against HRP-conjugated hMN-14 IgG (1 nM)

Chain of fusion protein containing the A3B3 domain of CEA (P06731 499-676): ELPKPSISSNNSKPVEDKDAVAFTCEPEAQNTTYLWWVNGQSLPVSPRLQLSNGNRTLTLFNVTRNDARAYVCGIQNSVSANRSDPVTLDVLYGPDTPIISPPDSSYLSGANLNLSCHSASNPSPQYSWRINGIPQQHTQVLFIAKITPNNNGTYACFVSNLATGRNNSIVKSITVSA

avidity, fold over TF1: 2 fold
Substance: TF2 (bispecific antibody)
